Reference: publication PMC12089286, “LLPS REDIFINE allows the biophysical characterization of multicomponent condensates without tags or labels”

Key:
PTBP1 [1] = molecular target: T1, PTBP1 (UniProt P26599 1-557); assay: EMSA; 1.5 mM Mg2+, 100 mM KCl, pH 8.0; EMSA: 20 mM HEPES pH 8.0, 100 mM KCl, 1.5 mM MgCl2, 10% glycerol, 0.5 mM DTT, native 10% TBE gel; NMR: PTBP1 in 10 mM sodium phosphate pH 6.5, 20 mM NaCl; Nu in 20 mM sodium phosphate pH 6.0, 50 mM NaCl; 298 K; conditions: protein: recombinant; tags: pET28a; label: 5'-32P (EMSA); none (NMR); single-stranded
PTBP1 [2] = molecular target: T1, PTBP1; assay: NMR diffusion (REDIFINE); 1:1 soluble complex; koff 1.41 s-1, kon 3e6 M-1 s-1; 10 mM phosphate pH 6.5, 20 mM NaCl; EMSA: 20 mM HEPES pH 8.0, 100 mM KCl, 1.5 mM MgCl2, 10% glycerol, 0.5 mM DTT, native 10% TBE gel; NMR: PTBP1 in 10 mM sodium phosphate pH 6.5, 20 mM NaCl; Nu in 20 mM sodium phosphate pH 6.0, 50 mM NaCl; 298 K; conditions: protein: recombinant; tags: pET28a; label: 5'-32P (EMSA); none (NMR); single-stranded
Nu(247-419) = Nu(247-419) (SARS-CoV-2, UniProt P0DTC9 247-419); assay: NMR (1D, DOSY); conditions: protein: recombinant; chain copies: 2; label: none (NMR); 3' Cy5 (microscopy); hairpin

Binder | Kd (PTBP1 [1]) | Kd (PTBP1 [2]) | binding result (Nu(247-419))
GGGAGAUCUCUAAAAAUCUCUAAAAAUCUCUAAAAA (ssRNA) [3xUCUCU RNA] | 490 ± 20 nM | 500 ± 100 nM | 
GGUUCACCGAGGCCACGCGGAGUACGAUCGAGUGUACAGUGAACC (structured_RNA) [s2m RNA] |  |  | binds
